Results reported in paper PMC1931443.

Legend:
DMRT5 (mouse) = target: T1, DMRT5 (mouse) (UniProt A2A9A2); assay: competition; conditions: 40-fold excess unlabeled SELF; EMSA: 10 mM Tris-HCl pH 7.9, 100 mM KCl, 10% glycerol, 5 mM MgCl2, 1 mM spermidine, 0.075% Triton-X-100, 1 mM DTT, 1 ug BSA, 0.1 ug dI-dC, 75 ng plasmid DNA, 0.
T1 sequence: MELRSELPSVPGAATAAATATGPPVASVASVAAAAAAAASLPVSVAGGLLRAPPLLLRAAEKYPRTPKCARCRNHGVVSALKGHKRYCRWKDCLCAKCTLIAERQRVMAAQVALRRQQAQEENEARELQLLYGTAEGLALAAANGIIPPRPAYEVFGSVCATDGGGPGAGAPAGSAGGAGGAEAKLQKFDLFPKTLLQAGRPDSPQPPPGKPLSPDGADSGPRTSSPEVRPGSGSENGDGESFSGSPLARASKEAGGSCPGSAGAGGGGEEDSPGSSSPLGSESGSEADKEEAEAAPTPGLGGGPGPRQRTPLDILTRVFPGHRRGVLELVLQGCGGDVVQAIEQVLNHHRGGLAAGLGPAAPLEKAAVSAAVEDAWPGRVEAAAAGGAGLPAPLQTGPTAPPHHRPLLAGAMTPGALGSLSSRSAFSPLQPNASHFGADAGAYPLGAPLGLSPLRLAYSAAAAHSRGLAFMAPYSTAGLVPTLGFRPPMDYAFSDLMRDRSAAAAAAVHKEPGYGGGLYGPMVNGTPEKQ

DMRT1 (mouse) = DMRT1 (mouse) (UniProt Q9QZ59); assay: competition; conditions: 40-fold excess unlabeled SELF; EMSA: 10 mM Tris-HCl pH 7.9, 100 mM KCl, 10% glycerol, 5 mM MgCl2, 1 mM spermidine, 0.075% Triton-X-100, 1 mM DTT, 1 ug BSA, 0.1 ug dI-dC, 75 ng plasmid DNA, 0.
Sequence of DMRT1 (mouse) (Q9QZ59 whole entry): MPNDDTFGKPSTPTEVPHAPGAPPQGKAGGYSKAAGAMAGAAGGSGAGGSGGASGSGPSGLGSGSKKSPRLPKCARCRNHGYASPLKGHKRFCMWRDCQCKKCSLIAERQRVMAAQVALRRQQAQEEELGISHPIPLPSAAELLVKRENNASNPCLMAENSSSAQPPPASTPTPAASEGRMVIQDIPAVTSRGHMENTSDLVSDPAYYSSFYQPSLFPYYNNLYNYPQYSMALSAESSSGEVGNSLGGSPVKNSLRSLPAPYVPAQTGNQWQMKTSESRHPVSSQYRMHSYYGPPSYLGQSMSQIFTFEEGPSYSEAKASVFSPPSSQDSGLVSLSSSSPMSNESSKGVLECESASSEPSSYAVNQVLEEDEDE

Q: “TCGAGATTTGATACATTGTTGC / TCGAGCAACAATGTATCAAATC [DMRT1 consensus (1RE, general gel shift)]” was tested. Which binding signal (relative to SELF) (DMRT5 (mouse)) did it give?
A: 1

Q: And the binding signal (relative to SELF) (DMRT1 (mouse))?
A: 1
